# Laboratory results from US20050106661A1 (RIKEN, published 2005).
# Key:
# [1] = target: the molecule itself; assay: formation of multimer (light scattering); self-association
# Procedure: The fluorescent protein was equilibrated with 50 mM HEPES (pH 7.5) and 150 mM KCl.
# [2] = target: the molecule itself; assay: molecular weight by light scattering (34 kDa)
Protein,binding result [1],binding result [2]
"Azami-Green, fluorescent protein derived from Galaxea fascicularis (other, Expressed in E. coli with a C-terminal His-tag and purified on Ni-agarose; also called wild-type Azami-Green; fluorescent protein of the present invention derived from coral; not shown: C-terminal His-tag from the pET28 vector (NcoI/XhoI cloning)) MSVIKPEMKIKLCMRGTVNGHNFVIEGEGKGNPYEGTQILDLNVTEGAPLPFAYDILTTVFQYGNRAFTKYPADIQDYFKQTFPEGYHWERSMTYEDQGICTATSNISMRGDCFFYDIRFDGVNFPPNGPVMQKKTLKWEPSTEKMYVRDGVLKGDVNMALLLEGGGHYRCDFKTTYKAKKDVRLPDYHFVDHRIEILKHDKDYNKVKLYENAVARYSMLPSQAK",binds,–
"mAG, monomeric mutant of Azami-Green (V123T, Y188A, F190K) (other, also called modified monomeric fluorescent protein) MSVIKPEMKIKLCMRGTVNGHNFVIEGEGKGNPYEGTQILDLNVTEGAPLPFAYDILTTVFQYGNRAFTKYPADIQDYFKQTFPEGYHWERSMTYEDQGICTATSNISMRGDCFFYDIRFDGTNFPPNGPVMQKKTLKWEPSTEKMYVRDGVLKGDVNMALLLEGGGHYRCDFKTTYKAKKDVRLPDAHKVDHRIEILKHDKDYNKVKLYENAVARYSMLPSQAK",–,no binding
